Reference: patent US20220323445A1, “REDUCING IMMUNOGENICITY TO PEGLOTICASE” (Horizon Therapeutics Ireland DAC, priority 2020, published 2022)

Test system: serum uric acid (sUA)
Assay: Serum uric acid (sUA) levels and sUA responders, open-label study of pegloticase with MTX (NCT03635957)
Assay type: in vivo, human
Description: The primary objective is to estimate the response rate during Month 6 (Weeks 20, 22, and 24), as measured by the sustained normalization of serum uric acid (SUA) to <6 mg/dL for at least 80% of the time during Month 6 in subjects receiving KXX with MTX.
The primary efficacy outcome endpoint is the sustained normalization of SUA to <6 mg/dL for at least 80% of the time during month 6 (weeks 20, 22, and 24) in subjects receiving KXX with MTX. This is slightly below the urate solubility threshold and this threshold has been the accepted standard for nearly all modern gout trials. Participants who achieve this endpoint were classified as “responders.” Serum uric acid (SUA) responders may also be defined as participants achieving and maintaining SUA <6 mg/dL for at least 80% of the time during Month 6 (Weeks 20, 22, and 24).
Blood samples may be collected prior to each pegloticase infusion for measurement of SUA levels using the Beckman Coulter AU System Uric Acid procedure. Participants were declared “non-responders” if there were SUA measures >6 mg/dL at 2 consecutive study visits beginning with the week 2 visit. […] If the SUA goal is not maintained before or at the 12-week mark, it was assumed that the participant had developed clinically relevant anti-pegloticase antibody and they received no further infusions. This assumption and subsequent discontinuation of pegloticase was consistent with the protocol of large phase III randomized controlled trials and the product label. A formal stopping rule was 2 occasions of SUA levels of greater than 6 mg/dL.
Clinical Chemistry—Blood samples were collected prior to each pegloticase infusion for measurement of SUA levels (primary efficacy parameter) using the Beckman Coulter AU System Uric Acid procedure. In this procedure uric acid is converted to hydrogen peroxide. Hydrogen peroxide reacts with reagent to produce a chromophore which is read bichromatically at 660/800 nm. The amount of dye formed is proportional to the uric acid concentration in the sample.
Serum samples for measurement of SUA levels were collected at the Screening Visit, the Week −4 Visit (prior to the first dose of MTX), and the Week −2 Visit during the MTX Run-in Period; within 48 hours prior to each pegloticase infusion and after the end of each pegloticase infusion prior to discharge from the site during the Pegloticase+IMM Period; at the non-infusion Week 52/End of Study/Early Termination Visits and at the Post Treatment 3 and 6 Month Follow-up Visits. Additional serum samples for SUA levels were collected at optional non-infusion (Frequent Sampling) Visits at Weeks 1 and 7. […] Subjects with SUA level >6 mg/dL at 2 consecutive visits beginning at Week 2 visit discontinued treatment, completed the End of Pegloticase Infusion Visit procedures within 2 weeks and continued the subject visits according to the protocol (without treatment).
Efficacy analyses were performed using the modified intention-to-treat (mITT) population, defined as all enrolled subjects who received ≥1 dose of pegloticase. The proportion of Month 6 responders was summarized, along with a 95% confidence interval for the proportion. The proportion of Month 3 and overall (Months 3 and 6 combined) responders was analyzed similarly.
A subject was declared a non-responder if the subject had SUA level >6 mg/dL at 2 consecutive study visits beginning with the Week 2 Visit. In addition, a subject who withdraws from study treatment for any reason after the first dose of pegloticase in the KXX+MTX Period and prior to Month 6 (for the primary endpoint) or Month 3 (for the secondary endpoint) was considered a non-responder if SUA values were not collected at the planned time points.
Patients were administered oral MTX (15 mg/week) and folate (1 mg/day) 4 weeks prior to the first pegloticase infusion (Day 1) and throughout the pegloticase treatment period. […]

[1] = Week 24 - Pre-Infusion, mITT, n=11
[2] = Week 26 - Pre-Infusion, Month 6 sUA Responders
[3] = Week 26 - Pre-Infusion, mITT, n=8
[4] = Week 28 - Pre-Infusion, Month 6 sUA Responders
[5] = Week 28 - Pre-Infusion, mITT, n=8
[6] = Week 30 - Pre-Infusion, Month 6 sUA Responders
[7] = Week 30 - Pre-Infusion, mITT, n=8
[8] = Week 32 - Post-Infusion, Month 6 sUA Responders
[9] = Week 32 - Post-Infusion, mITT, n=8
[10] = Week 32 - Pre-Infusion, Month 6 sUA Responders
[11] = Week 32 - Pre-Infusion, mITT, n=10
[12] = Week 34 - Post-Infusion, Month 6 sUA Responders
[13] = Week 34 - Post-Infusion, mITT, n=8

B1: pegloticase (protein)
chain: TYKKNDEVEFVRTGYGKDMIKVLHIQRDGKYHSIKEVATTVQLTLSSKKDYLHGDNSDVIPTDTIKNTVNVLAKFKGIKSIETFAVTICEHFLSSFKHVIRAQVYVEEVPWKRFEKNGVKHVHAFIYTPTGTHFCEVEQIRNGPPVIHSGIKDLKVLKTTQSGFEGFIKDQFTTLPEVKDRCFATQVYCKWRYHQGRDVDFEATWDTVRSIVLQKFAGPYDKGEYSPSVQKTLYDIQVLTLGQVPEIEDMEISLPNIHYLNIDMSKMGLINKEEVLLPLDNPYGKITGTVKRKLSSRL
modifications: monomethoxy PEG conjugated; Krystexxa Sequence
notes: covalent conjugate of uricase produced by a genetically modified strain of Escherichia coli and monomethoxypoly (ethylene glycol)
- sUA < 6 mg/dL, n (%) [1]: 11 (100%)
- sUA Change from Baseline, Mean (SD) [1]: −8.97 (2.810) mg/dL
- sUA Change from Baseline, Median [1]: -8.80 mg/dL
- sUA Observed, Mean (SD) [1]: 0.30 (0.000) mg/dL
- sUA Observed, Median [1]: 0.30 mg/dL
- sUA < 6 mg/dL, % [2]: (100%)
- sUA Change from Baseline, Mean [2]: -9.11 mg/dL
- sUA Change from Baseline, Median [2]: -8.95 mg/dL
- sUA Observed, Mean [2]: 0.30 mg/dL
- sUA Observed, Median [2]: 0.30 mg/dL
- sUA < 6 mg/dL, n (%) [3]: 8 (100%)
- sUA Change from Baseline, Mean (SD) [3]: −9.11 (3.293) mg/dL
- sUA Change from Baseline, Median [3]: -8.95 mg/dL
- sUA Observed, Mean (SD) [3]: 0.30 (0.000) mg/dL
- sUA Observed, Median [3]: 0.30 mg/dL
- sUA < 6 mg/dL, % [4]: (100%)
- sUA Change from Baseline, Mean [4]: -9.11 mg/dL
- sUA Change from Baseline, Median [4]: -8.95 mg/dL
- sUA Observed, Mean [4]: 0.30 mg/dL
- sUA Observed, Median [4]: 0.30 mg/dL
- sUA < 6 mg/dL, n (%) [5]: 8 (100%)
- sUA Change from Baseline, Mean (SD) [5]: −9.11 (3.293) mg/dL
- sUA Change from Baseline, Median [5]: -8.95 mg/dL
- sUA Observed, Mean (SD) [5]: 0.30 (0.000) mg/dL
- sUA Observed, Median [5]: 0.30 mg/dL
- sUA < 6 mg/dL, % [6]: (100%)
- sUA Change from Baseline, Mean [6]: -9.11 mg/dL
- sUA Change from Baseline, Median [6]: -8.95 mg/dL
- sUA Observed, Mean [6]: 0.30 mg/dL
- sUA Observed, Median [6]: 0.30 mg/dL
- sUA < 6 mg/dL, n (%) [7]: 8 (100%)
- sUA Change from Baseline, Mean (SD) [7]: −9.11 (3.293) mg/dL
- sUA Change from Baseline, Median [7]: -8.95 mg/dL
- sUA Observed, Mean (SD) [7]: 0.30 (0.000) mg/dL
- sUA Observed, Median [7]: 0.30 mg/dL
- sUA < 6 mg/dL, % [8]: (100%)
- sUA Change from Baseline, Mean [8]: -9.11 mg/dL
- sUA Change from Baseline, Median [8]: -8.95 mg/dL
- sUA Observed, Mean [8]: 0.30 mg/dL
- sUA Observed, Median [8]: 0.30 mg/dL
- sUA < 6 mg/dL, n (%) [9]: 8 (100%)
- sUA Change from Baseline, Mean (SD) [9]: −9.11 (3.293) mg/dL
- sUA Change from Baseline, Median [9]: -8.95 mg/dL
- sUA Observed, Mean (SD) [9]: 0.30 (0.000) mg/dL
- sUA Observed, Median [9]: 0.30 mg/dL
- sUA < 6 mg/dL, % [10]: (100%)
- sUA Change from Baseline, Mean [10]: -8.99 mg/dL
- sUA Change from Baseline, Median [10]: -8.95 mg/dL
- sUA Observed, Mean [10]: 0.30 mg/dL
- sUA Observed, Median [10]: 0.30 mg/dL
- sUA < 6 mg/dL, n (%) [11]: 10 (100%)
- sUA Change from Baseline, Mean (SD) [11]: −8.99 (2.961) mg/dL
- sUA Change from Baseline, Median [11]: -8.95 mg/dL
- sUA Observed, Mean (SD) [11]: 0.30 (0.000) mg/dL
- sUA Observed, Median [11]: 0.30 mg/dL
- sUA < 6 mg/dL, % [12]: (100%)
- sUA Change from Baseline, Mean [12]: -9.11 mg/dL
- sUA Change from Baseline, Median [12]: -8.95 mg/dL
- sUA Observed, Mean [12]: 0.30 mg/dL
- sUA Observed, Median [12]: 0.30 mg/dL
- sUA < 6 mg/dL, n (%) [13]: 8 (100%)
- sUA Change from Baseline, Mean (SD) [13]: −9.11 (3.293) mg/dL
- sUA Change from Baseline, Median [13]: -8.95 mg/dL
- sUA Observed, Mean (SD) [13]: 0.30 (0.000) mg/dL
- sUA Observed, Median [13]: 0.30 mg/dL
